According to a protein production outcome set (Wang et al. 2014):

Test: label from the status in PepcDB records

**Q.** With “MKVYIETMGCAMNSRDSEHLLSELSKLDYKETNDPKTADLILINTCSVREKPERKLFSEIGQFAKIKKPNAKIGVCGCTASHMGADILKKAPSVSFVLGARNVSKISQVIHKEKAVEVAIDYDESAYAFEFFEKKAQIRSLLNISIGCDKKCAYCIVPHTRGKEISIPMDLILKEAEKLANNGTKELMLLGQNVNNYGARFSSEHAKVDFSDLLDKLSEIQGIERIRFTSPHPLHMNDGFLERFAKNPKVCKSIHMPLQSGSSAVLKMMRRGYSKEWFLNRVERLKALVPEVGISTDIIVGFPNESDKDFEDTMEVLEKVRFDTLYSFIYSPRPFTEAGAWKERVPLEVSSSRLERLQNRHKEILEEKAKLEVGKTHVVLVENRREMDNQIVGFEGRSDTGKFIEVTCKEKRNPGELVKVEIISHSKGRLMAATKGN” as the sequence, how does the protein production read?
**A.** failed

**Q.** With “MKWEMGLQEEYIELIKAGKKKIEGRLYDEKRRQIKPGDIIIFEGGKLKVKVKGIRVYSSFKEMLEKEGIENVLPGVKSIEEGVKVYRQFYDEEREKKYGVVAIEIEPIE” as the sequence, how does the protein production read?
**A.** not failed

**Q.** With “MKWIEIYEKLVNIDTGPDLPLEGKLRRTSFLTEILEDLGFRVEKREAAYVAFRGKPPYVTLIGHLDTVFPEGESKRRPFTIEGNIAKGPGVCDMKGGVVILLESLKRFLQQNDTDLCVVLNVDEELGSPLSGEVFKEVAGMSSHCLSFEPGRENGELISSRKGIISLWLFARGKKGHASRLDEGANAIVELAFKVVELTSLNGRFPNLTLNPTIVKGGAESNVTPDKAEVYFDVRYYDDKEYEFLEETLKRLSAVHPEANVSYTLKLRRLPMKEDPDFVNIVKMSAEEIGMTVSFVRATGGGDVAFFSQNGVPSIDGLGIPGGKMHSEDEYARLDQFEDRVNLVVHLLRKLGGEKNVR” as the sequence, how does the protein production read?
**A.** not failed

**Q.** With “MKWIMKLRWAILAFWLAAAVVLMFIAPPMADLVREKGELKLPDGYPSSLATEMQKKHNPDDKGSAYIAVYTADHKLTGTELNDIQKSLDSIEKDKDELHVTNVLSSFNQPELKDKFLAKDGKTMVASLTVDDTDASVKSIRNALDKKMDVKGVDTYLTGNKLIQEDVVQGSEDGLHKTEGITVVFILVVLFLVFRSAVAPFIPLITVGISYLVAQSTVAFLIDIFNFPVSTYTQIFMVCIMFGIGTDYCILLMSRFKEEMGAGLNPREAVHATYRTAGKTVIYSGVAVLVAFTSLYFVQFDLYRSAVAVGVGIVVLLAALYTLVPFFMSTLGTHLFWPLNKNISHKENKIWGAAGKFTFARPWIALLIVAAITLPPILLHTGTESFNSLDEISDKYPSKKGFEIVSDSFGAGQVAPTQIFIENDDNMRTTDYIAQIEKISDDLSHLKGIDMVMSASRPAGKRVDDIYIKNQAGQVNDGVGQATDGVGEVKKGLDSASSELKKSEPALDKAVAGVGDLQKGTVATQEGINQLQTALAQIQKGIESGATGAGDLKQGVAEAKSQLATLQNGEAQIQAGYAEIQKNLQNVADQLKGFENPSSQAIDTSKLEEQFKKIGASFQAFAAAHPEVRNDPRFQKLAADIQGLETAGNELKTSAGQQMAALQAKMKELNQGIQQLATAMNQLNEQSKQISDGLSAFSTGLGQIETGLDQLEKGLNQAAVGQGQVVSKMPEVSNALTQIAAGQGALKDGFAGISGQMGQLTDGLTSGADGLGKVESGLNTANGLIDDWSKVPYASSGIYVPDALLKNADFQKVLDQYISSDGKLATINVILTKNPYSNEAMDSIDDINDQLAASMKGTKLENAKIGIGGMTSANYDTRDMSTADYHLVLVIVLASVFVTLVIVLRSLVMPIYLIASLVLTYFAALGFAEIIFMRILGYSGLTWATPFFGFVVLVALGIDYSIFLMSRFNEYNGLSVRDRMIKAMKNMGGVIFSAVIILGGTFAAMMPAGVLSLLEIATVVLIGLVLYAVVILPLFVPVMVKLFGRGNWWPFITRKGDHQENVPPKK” as the sequence, how does the protein production read?
**A.** failed

**Q.** With “MKWKKSLAGLSSYKPGKREEEVMAELGLTKITKLSSNENPLGTSKKVAAIQANSSVETEIYPDGWASSLRKEVADFYQLEEEELIFTAGVDELIELLTRVLLDTTTNTVMATPTFVQYRQNALIEGAEVREIPLLQDGEHDLEGMLNAIDEKTTIVWICNPNNPTGNYIELADIQAFLDRVPSDVLVVLDEAYIEYVTPQPEKHEKLVRTYKNLIITRTFSKIYGLASARVGYGIADKEIIRQLNIVRPPFNTTSIGQKLAIEAIKDQAFIGECRTSNANGIKQYEAFAKRFEKVKLYPANGNFVLIDLGIEAGTIFSYLEKNGYITRSGAALGFPTAVRITIGKEEDNSAVIALLEKLL” as the sequence, how does the protein production read?
**A.** not failed

**Q.** With “MKWLLVASAALYLFGSFRRPLFALGLGAGLAYLALRGISLGRLPLVGPHDTIAFFSASIGLMTLPFLFSPSLRNSSAFPWATGGTAAVFALFSLAFPALAMPLPPILNTLWFELHVALAFFAYALFTIGAIMGVLFLAGGERRLLDLQYRAALVGYTFFSGSMVAGGIWGYYAWGTYWLWTPKELWTSILWIFYTFWLHLRLRGAGGDRLLAWTGILGFGVMLFTYLGVSMLMKSSHSF” as the sequence, how does the protein production read?
**A.** failed

**Q.** Which protein production does the source give for “MKYAIREYKGKNVDLSKLSSIIENYFREENFVTQSSQHPRGYVIQAKKGGIFRTILGMDRAFTIVLVGDSSDFKVQIGVGKWLQDLGVAAIEAFLITPVVAFVEVPESLWSFELEHEFWQFLENQINLGIQ” here?
**A.** failed

**Q.** For “MKYKLLVLDVDGTLLNDEKEITPRTLATLLKVQQMGVHIVLASGRPTYGILPLAKKLELGNYGGYILSYNGAQVINAKNGEVLLERRINPEMLPYLEKKARKNGFAIFTYTEDRMIADQADNEHILQEAFLNRMELIEEPEFSVAVDFAPSKCMLVSDDEEALIGLEEHWKKRLNGALDVFRSEPYFLEVLPCGIDKSTSLGALLSHLDITPEEIIVIGDGVCDVSMIQFAGLGIAMGNAQDSVKVCADVVTASNEEDGVALAVEKAILSEIRPAEIPLDQLNERARHALMGNLGIQYTYASEDRVEATMPVDERTRQPFGILHGGATLALAETVAGLGSMILCQPDEIVVGMQVSGNHMSSAHEGDTVRAVGTIIHKGRSSHVWNVDVFTSTDKLVSSIRVVNSILKKR”, which protein production is on record?
**A.** failed

**Q.** Which protein production does the source give for “MKYLKNKIIHFLIFGGIYMDVEVLARAHGQQLVGYEGIKPLSLMGFTSLWMFLVGGLCGVIIGGLNDRPGYYNLKMWKQVLIGGTTITLVELFSGIFFNLYLGLHLWDYSKDRFNFMGQIELKNCIWWYVLPILIIWLDDVLSCYFYGDDRPPSLIMYLVKLVTLR” here?
**A.** failed

**Q.** With “MKYLPLYPILARYPFLRIASRVFSFNIEDELRKFLDTVEAAKRIVDKAIDGRVEYDRFTDESEFFCLGCEENCYDCQKRGTLEGCDLCMGCFENCSLYYPREAVERFYTNAKLSLLTYIASRMIVSAMEDWVRMRYAVNEASYYSRLLREDVEESGKEPIVRLVAIDLGAKLKGWKMHVSTFVRVSARIKDDKWRLVNRKLRNGWVETTKAEVLRGLEELLRMKLFEKVPVSEAVSEAVRELSRKAKRESEKFAMDLGEVDLNCLPPCMREILSELQRGMNIPHTARFAITSFLLNIGMTVDEIIALFKSAPDFDDEKTRYQVEHIAGERGKGAEYTSPSCDTMRTYSNCVADCRVSHPLIYYKKCKSKSLEHHHHHH” as the sequence, how does the protein production read?
**A.** not failed

**Q.** With “MKYQNEGQHRSPWALIVFLALSMAVTSPATRAQSSDLPSIGGSGGLISGQMEADIGQQVMASIRRSAPQLQDPLVYDYLSAIIYRLVPSAPLDNRDLKLVLIDSPAINAFAVPGGVVGVNGGLFLNAATEQQFASVLAHELAHLSQRHFARRMQQQETSAPLTLAGMIAGIVLSAVTQSDIGIAAIAGTQAMAVQNMLAYSRSHEQEADRVGMDILASAGMDPRGMPEMFEIMMRQNRLQGNRLPEYLSTHPLTQNRVADTRNRAEQYPDTRVQDGQEYHLVRSRLQVHYSESPETAIETFEAYLAREDAQRNDAIRYGLAVAYQESRRYEKAEQLMRELLKANPGRITFQVSLAEVLLSQKRYADARALMQEALARNPGNYPITSTLAAIEIADGNGAAAADYLRELTRRLPSQEQLWLRLAEAEGMARNIVGVHRARAEYDVLMGDLKSAQRQLRQAQEKLPAGSAERQVVSERLGELTNRLQAREAG” as the sequence, how does the protein production read?
**A.** failed

**Q.** For “MKYRQWVLGAGFTLSVGLSSVAHAFSIPQPANEIAASKFVHIQVQAEQGDADAQFLLGLMFLSGRYVQQEVPSGLHWITLAAEQQHEKAQQTLADLSFEGQLIKRDLAVAERWYKDMGERGNRWAQFRLGFIYASGGDGVKRNCGKAVEQFTRVGDDIALGNVAWILATCPEAEYRDGNKALELSLQLLKVNENDPTNLDNLAAAYAEVGDFGAAVSTQQKAIAALKMTAEATKTDEFKQRLHSYEQKRAYRETLRLLE”, which protein production is on record?
**A.** failed

**Q.** For “MKYSEAQQGRVFVIRLEDGDIFHEEIERFAKEKGIERAYLNVVGGADKESKLVVGPEESRTYPVNPMEHELYDAHEIVGTGTLFPDDTSAPVVHLHMACGREENTVTGCVRNGVKVWHVMEVILVELLGTQARRLPDKATGFKLLVPLEHHHHHH”, which protein production is on record?
**A.** not failed

**Q.** With “MKYYPFSYYRSINAADLYENIKAYTVLDVREPFELIFGSIANSINIPISELREKWKILERDKKYAVICAHGNRSAAAVEFLSQLGLNIVDVEGGIQSWIEEGYPVVYGRESAEDLEHHHHHH” as the sequence, how does the protein production read?
**A.** not failed

**Q.** For “MLALKKKSVKAAFEALIPKIMEEGTEMVSEDGQKCKELMNTIIEITDPSDKSISEKYPLGERAVESYTEQLLHGSAATFVYDYHERIFEYPSDKKELKNDQIDYIVNKLKEQINSRRAIAITWNPYIDQTVKDVPCLQIVQFLIRDNKLYQTVLFRSNDAFLAFHANAIGLIALGEMVAEKLEIELAKYTHHSVSMHVYSERDIDALKKF”, which protein production is on record?
**A.** not failed

**Q.** Which protein production does the source give for “MLALKSSELEGIATSLTAVAGALHESNTDRLQSWQQLETMTSASSLIQGFIKLVDYNRPTVNIVEQMHKTASTLFNTADFLRTLEGYVDVLEKQADKSITLTVMLRYIASLSSLLDLMCAREINALCTAITPEPLKHLGDFGTLPASAIHEFHLVNAPPEIRALAEAHPDMQILEAGDGSLVASFGDIDRATTVTTIVAGVGSSNPEGWNTYVDRARTVSASTGSATVLWLGYQAPASIPAAVSGAAANRAAADLQRFQAALQSRNPHQRKVVMGYSYGSTVVGKAASSGELSADALVLVGSPGAGVSHSSQLGAPVYAVTGSADPIGFAGTQYDGIHGTDPTAALFGATVWDSPSTHSGYWNDQEFLGNVAEVVRGK” here?
**A.** failed

**Q.** Which protein production does the source give for “MLDAAIKALTQILSPPMRSILWRSVGFALALIAVAAIGLQRLLSWAATSSELWAEAALGGFQTPLNILSWVLSIAAGLGIVVGAVFLMPAVTSLVAGIFVDEAAEHVERESYPHEAPGVALPIGLATWETVKTALLTILVYLVALPFLFVAGAGAIVFFVATAWLLGREYFELAAMRFRTAPEAKAMRRDNATTVFIGGLIIAAFVSIPIVNLATPLFGMAFMVHLHKRLSGSRPEVLAPDQRSMLR” here?
**A.** failed

**Q.** Which protein production does the source give for “MLDHVIRGATVVDGTGAPAYTADVGIRDGRIAAVGTVTEPARAGEDAAGLVLAPGFVDPHTHYDAQLFWDPYATPSLNHGVTTVAGGNCGFTLAPLNPDRPQDADYTRRMMSKVEGMSLVALEEGAPWSWHTFGDYLDALEGRIAVNAGFMVGHCALRRYVMGPDAVGGRPTREQLERMLALFHEAMDAGAWGLSTTQSSTHSDGDGQPVASRHARPAELLALARAVGEHEGTQIEAIVAGCLDQFSDAEIDLFVEMSAAAGRPLNWNVLTIDAAVPERVPRQLTASERARKAGGRVVALTMPILTPMNMSLGTFCALNLIPGWGEVLGLPVPERIARLRDPDVRAELLRRADSKEAGVFRRLANFGRYVIGDTYSTANEGLTGRVVNDIAAERGQDPFHCLVEICAADELRTVLWPMPTDNDPDSWALRAETWRHKDVLLGGSDAGAHLDRMCGAPYTTRFLGDCLRGRKLVPLEQAVKMLTDDPARLFGLRDRGRIREGFHADLVLFDPARIDAGKATLVHDLPGDSPRLDSKAIGVTAVWVNGVEAIRDDVVTGAVPGKVLRSGRDTRTVSTR” here?
**A.** failed

**Q.** Which protein production does the source give for “MLDKNVLNEIGSKVNEILASSPARDVEKNMRAMLTGAFARLDLVTREEFDVQQEVIKRTRIKLAELEEKVRKLEQQLQQPAEVVSSNETGDA” here?
**A.** not failed
